The results in this text go back to PMC10397247.

Experiment in all cases: two-hybrid library CCNG1;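 further: natural log of median RNA to DNA barcode read ratio; higher means stronger binding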
Test [1] concerns the target T1, 4H575-bH.
T1 chain: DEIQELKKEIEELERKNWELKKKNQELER
As to conditions: mean of both orientations.

The target in test [2] is T2, 4H883-bH.
T2 chain: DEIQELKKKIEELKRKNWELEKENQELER

Test [3] deals with T3, 4H2576-bH.
T3 chain: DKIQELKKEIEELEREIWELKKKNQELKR

Test [4] deals with T4, 4H2729-bH.
T4 chain: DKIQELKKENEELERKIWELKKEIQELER

The target of test [5] is T5, 4H3427-bH.
T5 chain: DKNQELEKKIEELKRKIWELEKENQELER

Test [6] concerns the target T6, 4H3354-bH.
T6 chain: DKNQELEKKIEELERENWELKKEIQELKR

For test [7], the target named is T7, 4H2667-bH.
T7 chain: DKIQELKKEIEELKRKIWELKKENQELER

Test [8] concerns the target T8, 4H2618-bH.
T8 chain: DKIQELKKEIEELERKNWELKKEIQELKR

In test [9] the target is T9, 4H3112-bH.
T9 chain: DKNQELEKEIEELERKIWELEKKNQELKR

Test [10] deals with T10, 4H3782-bH.
T10 chain: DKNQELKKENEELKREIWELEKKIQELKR

Test [11] deals with T11, 4H918-bH.
T11 chain: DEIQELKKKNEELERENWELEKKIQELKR

The target of test [12] is T12, 4H2442-bH.
T12 chain: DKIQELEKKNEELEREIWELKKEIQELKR

Test [13] addresses T13, 4H3855-bH.
T13 chain: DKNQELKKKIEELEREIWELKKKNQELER

Test [14] addresses T14, 4H953-bH.
T14 chain: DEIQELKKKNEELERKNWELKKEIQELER

Test [15] addresses T15, 4H908-bH.
T15 chain: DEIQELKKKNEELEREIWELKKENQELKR

Test [16] concerns the target T16, 4H883-bA.
T16 chain: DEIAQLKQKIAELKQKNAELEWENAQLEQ

The target in test [17] is T17, 4H338-bH.
T17 chain: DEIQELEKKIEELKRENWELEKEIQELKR

The target in test [18] is T18, 4H687-bH.
T18 chain: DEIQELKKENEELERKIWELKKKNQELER

In test [19] the target is T19, 4H568-bH.
T19 chain: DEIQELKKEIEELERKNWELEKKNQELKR

The target of test [20] is T20, 4H331-bH.
T20 chain: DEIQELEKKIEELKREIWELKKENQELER

Test [21] has as its target T21, 4H3907-bA.
T21 chain: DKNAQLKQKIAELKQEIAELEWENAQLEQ

For test [22], the target named is T22, 4H454-bH.
T22 chain: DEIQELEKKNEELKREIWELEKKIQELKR

For test [23], the target named is T23, 4H4001-bH.
T23 chain: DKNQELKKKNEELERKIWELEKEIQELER

Test [24] has as its target T24, 4H967-bH.
T24 chain: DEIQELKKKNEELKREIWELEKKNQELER

Test [25] has as its target T25, 4H754-bH.
T25 chain: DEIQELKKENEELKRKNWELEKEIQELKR

Test [26] has as its target T26, 4H797-bH.
T26 chain: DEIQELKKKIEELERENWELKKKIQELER

Test [27] has as its target T27, 4H72-bH.
T27 chain: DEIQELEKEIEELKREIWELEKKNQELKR

Test [28] deals with T28, 4H717-bH.
T28 chain: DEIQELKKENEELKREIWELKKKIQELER

Test [29] concerns the target T29, 4H3185-bH.
T29 chain: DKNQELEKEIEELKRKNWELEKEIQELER

The target of test [30] is T30, O12.
T30 chain: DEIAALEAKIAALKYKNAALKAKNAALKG

The target in test [31] is T31, 4H462-bH.
T31 chain: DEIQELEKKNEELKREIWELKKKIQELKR

The target in test [32] is T32, 4H4001-bN.
T32 chain: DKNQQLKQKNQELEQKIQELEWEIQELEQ

For test [33], the target named is T33, 4H2610-bH.
T33 chain: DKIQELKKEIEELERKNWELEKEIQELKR

In test [34] the target is T34, 4H3189-bH.
T34 chain: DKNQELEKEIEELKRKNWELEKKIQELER

For test [35], the target named is T35, 4H370-bH.
T35 chain: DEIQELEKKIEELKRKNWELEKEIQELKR

The target of test [36] is T36, 4H607-bH.
T36 chain: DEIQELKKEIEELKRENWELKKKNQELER

Test [37] deals with T37, 4H3843-bH.
T37 chain: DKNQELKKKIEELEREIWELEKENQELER

For test [38], the target named is T38, O7-bN.
T38 chain: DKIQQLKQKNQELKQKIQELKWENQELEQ

Test [39] concerns the target T39, 4H2697-bH.
T39 chain: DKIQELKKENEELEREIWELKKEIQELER

Test [40] concerns the target T40, 4H575-bA.
T40 chain: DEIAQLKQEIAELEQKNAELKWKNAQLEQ

The target of test [41] is T41, 4H3606-bH.
T41 chain: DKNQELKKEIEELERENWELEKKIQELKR

Test [42] concerns the target T42, 4H918-bN.
T42 chain: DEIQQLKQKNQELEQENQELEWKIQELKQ

Test [43] concerns the target T43, 4H1845-bH.
T43 chain: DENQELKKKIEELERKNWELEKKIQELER

In test [44] the target is T44, 4H2717-bN.
T44 chain: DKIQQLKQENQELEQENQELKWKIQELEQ

Test [45] deals with T45, O9.
T45 chain: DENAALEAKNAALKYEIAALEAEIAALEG

Test [46] deals with T46, O15.
T46 chain: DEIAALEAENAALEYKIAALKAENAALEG

Test [47] addresses T47, O3.
T47 chain: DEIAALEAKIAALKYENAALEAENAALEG

The target in test [48] is T48, O7.
T48 chain: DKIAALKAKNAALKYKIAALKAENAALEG

In test [49] the target is T49, O14.
T49 chain: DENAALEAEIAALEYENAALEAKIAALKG

Test [50] deals with T50, O13.
T50 chain: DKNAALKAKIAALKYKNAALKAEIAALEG

For test [51], the target named is T51, O2.
T51 chain: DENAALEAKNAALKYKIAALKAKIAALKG

Test [52] deals with T52, O8.
T52 chain: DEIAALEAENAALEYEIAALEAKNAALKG

The target in test [53] is T53, O16.
T53 chain: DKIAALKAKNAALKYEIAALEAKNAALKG

Test [54] concerns the target T54, O4.
T54 chain: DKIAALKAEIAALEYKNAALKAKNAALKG

The target of test [55] is T55, O5.
T55 chain: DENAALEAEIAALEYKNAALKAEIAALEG

The target of test [56] is T56, O6.
T56 chain: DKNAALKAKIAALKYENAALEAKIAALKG

With DKIQELEKKNEELEREIWELKKEIQELKR [4H2442-bH], the interaction score in test [1] was 0.167; in [2] it was 0.442; in test [3], 0.27; in test [4], 1.77; in [5] it was -0.00664; in [6], 0.0703. Besides, the interaction score in [7] is -0.37; in test [8], 1.93; in test [9], -0.123; in test [10], -0.566; in [11] it was -0.517; in [12], 1.25. Besides, the interaction score in test [13] was -1.1; in test [14], 0.587; in test [15], -0.628; in test [16] it was -2.1; in test [17], 0.526; in test [18], -0.163. Further, the interaction score in [19] is -0.0562; in test [20], -0.168; in test [21] it was -1.28; in test [22], 1.64; in test [23] it was -0.244; in [24], 0.424. Moreover, the interaction score in test [25] was -0.751; in test [26], -0.629; in test [27], -2.01; in [28], 0.313; in [29], -0.571.
On to DEIQELKKKNEELKREIWELEKKNQELER [4H967-bH], for which the interaction score was -1.53 in test [30] and -0.406 in test [24].
As for DENQELKKKIEELERKNWELEKKIQELER [4H1845-bH], the interaction score was -0.599 in test [31]; -0.805 in [32]; -0.549 in [33]; 0.0604 in [2]; -1.7 in test [3]; 0.473 in test [4]. The interaction score was 0.462 in test [34]; -0.323 in [5]; 0.334 in test [6]; 0.349 in test [7]; -1.52 in [8]; -0.319 in [35]. Besides, the interaction score in [9] was -0.698; in [36], -2.75; in test [10], 0.165; in [11] it was -0.512; in [12], -0.237; in test [13], -0.295. For the same molecule, the interaction score is -0.598 in [14]; -1 in test [15]; -0.243 in [17]; -0.46 in test [18]; -0.224 in [37]; -0.447 in test [19]. Moreover, the interaction score was -1.2 in test [20]; -0.332 in [38]; 0.106 in test [39]; -0.0899 in test [22]; -1.03 in test [23]; -1.1 in test [40]. Moreover, the interaction score in [41] was 0.808; in test [24], -0.511; in test [42] it was -1.11; in test [25], 0.391; in test [43] it was 0.142; in [26], 0.175. In addition, the interaction score in test [27] was 0.142; in test [44], -0.601; in [28], 0.319; in test [29], 0.639.
Turning to DEIAALEAKIAALKYKNAALKAKNAALKG [O12], the interaction score was -1.67 in test [45]; -1.36 in test [46]; 0.318 in test [47]; -2.15 in test [48]; -2.08 in test [30]; -1.45 in [49]. The interaction score in [50] is -2.04; in test [51], -2.46; in [52], -1.51; in test [53], -2.57; in [54] it was -1.08; in [55], -2.03. Also, the interaction score in test [56] was -2.27.
